For test [1], the target named is T1, huFLT3-M227 stably expressed on Ramos cells (human, UniProt P36888 27-993).
T1 construct: whole, on cells; also called FLT3 Mutant
As to the kind of experiment: FACS on cells.
Procedure: For FLT3, Ramos cells were engineered to stably express either the huFLT3-T227 or huFLT3-M227 variant at >200,000 receptors per cell. Parental, huFLT3-T227, and huFLT3-M227 Ramos cell lines were stained with differing levels of CellTrace Violet Cell Proliferation Kit (ThermoFisher, cat. #C34557) to barcode each cell line. Barcoded Ramos cell lines were fixed with paraformaldehyde and incubated with myc-labeled scFv periplasmic extracts and a secondary anti-myc PE-conjugated monoclonal antibody. Appropriate positive and negative controls were used. Stained cells were analyzed by flow cytometry (CytoFLEX, Beckman Coulter, Inc.) and binding was assessed by change in PE mean fluorescence intensity (MFI) of the barcoded cell populations.

A further test deals with T2, huCLL1-Q244-Avi-Tev-His (human, UniProt Q5QGZ9 65-265).
T2 construct: extracellular domain; also called CLL-1 K244Q
T2 sequence (looked up): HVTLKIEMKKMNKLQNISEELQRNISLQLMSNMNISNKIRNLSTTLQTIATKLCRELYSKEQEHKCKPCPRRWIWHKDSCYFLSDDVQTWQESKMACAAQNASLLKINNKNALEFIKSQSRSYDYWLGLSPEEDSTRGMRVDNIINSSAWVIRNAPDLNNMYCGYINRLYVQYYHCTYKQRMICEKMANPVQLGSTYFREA
Briefly: BLI. A general note: BLI is a label-free optical method that tracks binding on a fibre tip over time.

A further test concerns the target T3, huCLL1-K244-Avi-Tev-His (human, UniProt Q5QGZ9 65-265).
T3 construct: extracellular domain
T3 sequence (looked up): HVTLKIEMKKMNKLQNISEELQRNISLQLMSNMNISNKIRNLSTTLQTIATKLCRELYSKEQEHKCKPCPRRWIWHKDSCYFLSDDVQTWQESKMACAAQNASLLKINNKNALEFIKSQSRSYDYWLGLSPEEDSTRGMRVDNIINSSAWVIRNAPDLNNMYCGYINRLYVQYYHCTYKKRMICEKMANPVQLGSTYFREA
Briefly: BLI.

T1 sequence (P36888 27-993 T227M): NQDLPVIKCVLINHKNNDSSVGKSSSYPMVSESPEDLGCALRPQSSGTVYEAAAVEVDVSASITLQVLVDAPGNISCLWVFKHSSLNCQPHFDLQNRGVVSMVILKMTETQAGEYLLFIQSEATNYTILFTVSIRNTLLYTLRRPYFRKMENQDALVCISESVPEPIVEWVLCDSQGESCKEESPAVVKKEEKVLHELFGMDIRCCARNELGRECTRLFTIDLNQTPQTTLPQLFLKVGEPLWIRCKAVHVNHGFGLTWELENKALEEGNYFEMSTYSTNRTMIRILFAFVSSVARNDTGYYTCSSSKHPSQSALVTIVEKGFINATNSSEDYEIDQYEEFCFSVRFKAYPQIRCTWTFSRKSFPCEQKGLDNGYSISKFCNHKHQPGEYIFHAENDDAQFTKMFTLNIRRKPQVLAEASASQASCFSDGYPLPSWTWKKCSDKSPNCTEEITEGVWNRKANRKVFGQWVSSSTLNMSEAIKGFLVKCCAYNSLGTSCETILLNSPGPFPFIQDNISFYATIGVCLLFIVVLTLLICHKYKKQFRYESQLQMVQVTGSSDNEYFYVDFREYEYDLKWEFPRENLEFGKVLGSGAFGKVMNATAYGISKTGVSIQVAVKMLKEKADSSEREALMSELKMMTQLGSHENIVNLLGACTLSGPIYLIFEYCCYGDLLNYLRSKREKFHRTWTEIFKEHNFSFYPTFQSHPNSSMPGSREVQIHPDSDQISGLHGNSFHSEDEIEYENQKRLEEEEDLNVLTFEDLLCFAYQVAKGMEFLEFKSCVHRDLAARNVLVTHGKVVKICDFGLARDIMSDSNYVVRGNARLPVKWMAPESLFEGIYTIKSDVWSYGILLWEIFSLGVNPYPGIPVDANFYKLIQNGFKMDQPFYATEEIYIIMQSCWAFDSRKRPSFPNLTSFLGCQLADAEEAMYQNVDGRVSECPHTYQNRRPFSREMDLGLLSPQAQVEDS

B1: Polypeptide No. 286 (scFv, V domains shown)
VH: QVQLVQSGAEVKKPGASVKVSCKASGYTFTSYGISWVRQAPGQGLEWMGWISPNSGVTNYAQKFQGRVTMTRDTSTSTVYMELSSLRSEDTAVYYCVSDDYGAFDYWGQGTLVTVSS
VL: EIVMTQSPATLSVSPGERATLSCRASQSVSSSYLAWYQQKPGQAPRLLIYDVSTRASGIPARFSGSGSGTEFTLTISSLQSEDFAVYYCQQYNNWPYTFGQGTKLEIKR
notes: scFv
Regarding B1, the “FACS geometric mean fold change over Jurkat parental” value in test [1] was in the range of 2 to 10 fold.

B2: Polypeptide No. 282 (scFv, V domains shown)
VH: QVQLVQSGAEVKKPGASVKVSCKASGGTFSSYAISWVRQAPGQGLEWMGWMNPNSGDTGYAQKFQGRVTMTRDTSTSTVYMELSSLRSEDTAVYYCARDFEGGGWFDPWGQGTLVTVSS
VL: EIVMTQSPATLSVSPGERATLSCRASRSISDYLAWYQQKPGQAPRLLIYDASSRATGIPARFSGSGSGTEFTLTISSLQSEDFAVYYCQQYYTTPLTFGQGTKVEIKR
notes: scFv
On to B2, for which the “FACS geometric mean fold change over Jurkat parental” value in test [1] fell in the range of 2 to 10 fold.

B3: Polypeptide No. 150 (scFv, V domains shown)
VH: QVQLVQSGAEVKKPGASVKVSCKASGYIFTSQYIHWVRQAPGQGLEWMGWINPNSGGTNYAQKFQGRVTMTRDTSTSTVYMELSSLRSEDTAVYYCARDPWGAYGGDAFDIWGQGTMVTVSS
VL: DIQMTQSPSSLSASVGDRVTITCRASQGISNNLNWYQQKPGKAPKLLIYDASHLDTGVPSRFSGSGSGTDFTLTISSLQPEDFATYYCQQNYSPPPTFGQGTRLEIKR
notes: scFv
B3: the binding result in the test with huCLL1-Q244-Avi-Tev-His and with huCLL1-K244-Avi-Tev-His was “binds” throughout.

B4: Polypeptide No. 155 (scFv, V domains shown)
VH: QVQLVQSGAEVKKPGASVKVSCKASGYTFTSYDINWVRQAPGQGLEWMGWMNPSSGDSGYAQKFQGRVTMTRDTSTSTVYMELSSLRSEDTAVYYCARPERSDAFDIWGQGTTVTVSS
VL: DIQMTQSPSSLSASVGDRVTITCRASQSIGPWLAWYQQKPGKAPKLLIYDASNLEAGVPSRFSGSGSGTDFTLTISSLQPEDFATYYCQQSFSSPLTFGGGTKVEIKR
notes: scFv
For the molecule B4, the binding result with huCLL1-Q244-Avi-Tev-His and with huCLL1-K244-Avi-Tev-His was “binds” each time.

B5: Polypeptide No. 157 (scFv, V domains shown)
VH: QVQLVQSGAEVKKPGASVKVSCKASGYTFSDYYIHWVRQAPGQGLEWMGIINPSGGSTSYAQKFQGRVTMTRDTSTSTVYMELSSLRSEDTAVYYCARGMTDDAFDIWGQGTMVTVSS
VL: DIQMTQSPSSLSASVGDRVTITCRASQGISSWLAWYQQKPGKAPKLLIYDASNLETGVPSRFSGSGSGTDFTLTISSLQPEDFATYYCQQTYAIPLTFGGGTKLEIKR
notes: scFv
Consider B5, for which the binding result in the test with huCLL1-Q244-Avi-Tev-His and with huCLL1-K244-Avi-Tev-His was “binds” in each case.

B6: Polypeptide No. 144 (scFv, V domains shown)
VH: QVQLVQSGAEVKKPGASVKVSCKASGYTFTAYYMHWVRQAPGQGLEWMGIIDPSGGSTSYAQQFQGRVTMTRDTSTSTVYMELSSLRSEDTAVYYCARGDYGDYHTLWGQGTLVTVSS
VL: DIQMTQSPSSLSASVGDRVTITCRASQGISSYLAWYQQKPGKAPKLLIYDASSLQSGVPSRFSGSGSGTDFTLTISSLQPEDFATYYCQQSYSTPITFGPGTKVDIKR
notes: scFv
Turning to B6, the binding result with huCLL1-Q244-Avi-Tev-His and with huCLL1-K244-Avi-Tev-His was “binds” each time.

B7: Polypeptide No. 145 (scFv, V domains shown)
VH: QVQLVQSGAEVKKPGASVKVSCKASGGTFSTSYMHWVRQAPGQGLEWMGWIHPDDGNTDYAPKFQGRVTMTRDTSTSTVYMELSSLRSEDTAVYYCARDLGDYDTFDIWGQGTMVTVSS
VL: DIQMTQSPSSLSASVGDRVTITCRVSQGISSYLNWYQQKPGKAPKLLIYDASNLQAGVPSRFSGSGSGTDFTLTISSLQPEDFATYYCQQSYSTPPTFGQGTKVEIKR
notes: scFv
Take B7: the binding result in the test with huCLL1-Q244-Avi-Tev-His and in the test with huCLL1-K244-Avi-Tev-His was “binds” throughout.

B8: Polypeptide No. 154 (scFv, V domains shown)
VH: QVQLVQSGAEVKKPGASVKVSCKASGGTFSSYGVTWVRQAPGQGLEWMGWINPNTGGTDYAQNFQGRVTMTRDTSTSTVYMELSSLRSEDTAVYYCAGEVGVGGYDAFDIWGQGTTVTVSS
VL: DIQMTQSPSSLSASVGDRVTITCRASQGISNWLAWYQQKPGKAPKLLIYAASSLQSGVPSRFSGSGSGTDFTLTISSLQPEDFATYYCQQSYSIPLTFGGGTKVEIKR
notes: scFv
For the molecule B8, the binding result with huCLL1-Q244-Avi-Tev-His and with huCLL1-K244-Avi-Tev-His was “binds” each time.

B9: Polypeptide No. 149 (scFv, V domains shown)
VH: QVQLVQSGAEVKKPGASVKVSCKASGYTFTSYDINWVRQAPGQGLEWMGWMNPNSGNTGYAQKFQGRVTMTRDTSTSTVYMELSSLRSEDTAVYYCARELEGEWFDPWGQGTLVTVSS
VL: DIQMTQSPSSLSASVGDRVTITCRASQSISSYLNWYQQKPGKAPKLLIYSASNLQSGVPSRFSGSGSGTDFTLTISSLQPEDFATYYCQQAISFPLTFGQGTKVEIKR
notes: scFv
Turning to B9, the binding result in the test with huCLL1-Q244-Avi-Tev-His and with huCLL1-K244-Avi-Tev-His was “binds” throughout.

B10: Polypeptide No. 152 (scFv, V domains shown)
VH: QVQLVQSGAEVKKPGASVKVSCKASGGTFSTNAISWVRQAPGQGLEWMGWMNPNSGNTGYAQKFQGRVTMTRDTSTSTVYMELSSLRSEDTAVYYCAKEDYGGNFDYWGQGTLVTVSS
VL: DIQMTQSPSSLSASVGDRVTITCRASQSIGPWLAWYQQKPGKAPKLLIYDASNLQAGVPSRFSGSGSGTDFTLTISSLQPEDFATYYCQQSHSLPLTFGPGTKVDIKR
notes: scFv
For the molecule B10, the binding result in the test with huCLL1-Q244-Avi-Tev-His and with huCLL1-K244-Avi-Tev-His was “binds” each time.

B11: Polypeptide No. 146 (scFv, V domains shown)
VH: QVQLVQSGAEVKKPGASVKVSCKASGYTFSGHYMHWVRQAPGQGLEWMGWIDPNSGGTNYAQKFQGRVTMTRDTSTSTVYMELSSLRSEDTAVYYCARDYPFYGDNDAFDIWGQGTTVTVSS
VL: DIQMTQSPSSLSASVGDRVTITCRVSQGISSYLNWYQQKPGKAPKLLIYEASSLESGVPSRFSGSGSGTDFTLTISSLQPEDFATYYCQQSYSIPFTFGPGTKVDIKR
notes: scFv
As to B11, the binding result in the test with huCLL1-Q244-Avi-Tev-His and with huCLL1-K244-Avi-Tev-His was “binds” throughout.

B12: Polypeptide No. 148 (scFv, V domains shown)
VH: QVQLVQSGAEVKKPGASVKVSCKASGGTFTTYGISWVRQAPGQGLEWMGWMNPFSDNTDYAQNFQGRVTMTRDTSTSTVYMELSSLRSEDTAVYYCARGTGDDAFDIWGQGTMVTVSS
VL: DIQMTQSPSSLSASVGDRVTITCRASQSISTWVAWYQQKPGKAPKLLIYAASSLQSGVPSRFSGSGSGTDFTLTISSLQPEDFATYYCQQSFSIPLTFGQGTKVEIKR
notes: scFv
Consider B12, for which the binding result with huCLL1-Q244-Avi-Tev-His and with huCLL1-K244-Avi-Tev-His was “binds” in each case.

B13: Polypeptide No. 158 (scFv, V domains shown)
VH: QVQLVQSGAEVKKPGASVKVSCKASGDSFSSYGISWVRQAPGQGLEWMGWINPKSGATTSAQKFQGRVTMTRDTSTSTVYMELSSLRSEDTAVYYCARSTAFDAFDIWGQGTTVTVSS
VL: DIQMTQSPSSLSASVGDRVTITCRASQSISSWLAWYQQKPGKAPKLLIYDASNLETGVPSRFSGSGSGTDFTLTISSLQPEDFATYYCQQSYSTPLTFGQGTKVEIKR
notes: scFv
Take B13: the binding result in the test with huCLL1-Q244-Avi-Tev-His and with huCLL1-K244-Avi-Tev-His was “binds” each time.

B14: Polypeptide No. 156 (scFv, V domains shown)
VH: QVQLVQSGAEVKKPGASVKVSCKASGYTFTGYFIHWVRQAPGQGLEWMGWMNPNSGNTGYAQKFQGRVTMTRDTSTSTVYMELSSLRSEDTAVYYCARGDYADWFDPWGQGTLVTVSS
VL: DIQMTQSPSSLSASVGDRVTITCRASQSISTWLAWYQQKPGKAPKLLIYDAFTLETGVPSRFSGSGSGTDFTLTISSLQPEDFATYYCQQSYSTPLTFGQGTKVEIKR
notes: scFv
For B14, the binding result in the test with huCLL1-Q244-Avi-Tev-His and with huCLL1-K244-Avi-Tev-His was “binds” in each case.

B15: Polypeptide No. 153 (scFv, V domains shown)
VH: QVQLVQSGAEVKKPGASVKVSCKASGGAFSSYALSWVRQAPGQGLEWMGWMNPNSGNTGYAQKFQGRVTMTRDTSTSTVYMELSSLRSEDTAVYYCAADWMIGGDAFDIWGQGTTVTVSS
VL: DIQMTQSPSSLSASVGDRVTITCRASQSISSWLAWYQQKPGKAPKLLIYDASRLQSGVPSRFSGSGSGTDFTLTISSLQPEDFATYYCQQSYGIPLTFGGGTKVEIKR
notes: scFv
For B15, the binding result with huCLL1-Q244-Avi-Tev-His and in the test with huCLL1-K244-Avi-Tev-His was “binds” each time.

B16: Polypeptide No. 147 (scFv, V domains shown)
VH: QVQLVQSGAEVKKPGASVKVSCKASGYTFTSYHIHWVRQAPGQGLEWVGGIIPSGGSTSYAQKFQGRVTMTRDTSTSTVYMELSSLRSEDTAVYYCARGTNDDHYDYWGQGTLVTVSS
VL: DIQMTQSPSSLSASVGDRVTITCRASQGISNYLAWYQQKPGKAPKLLIYDASNLETGVPSRFSGSGSGTDFTLTISSLQPEDFATYYCQQSYSTPLTFGGGTKVEIKR
notes: scFv
As for B16, the binding result with huCLL1-Q244-Avi-Tev-His and with huCLL1-K244-Avi-Tev-His was “binds” throughout.

B17: Polypeptide No. 151 (scFv, V domains shown)
VH: QVQLVQSGAEVKKPGASVKVSCKASGYTFTDYYIHWVRQAPGQGLEWMGWMNPNSGNTGYAQKFQGRVTMTRDTSTSTVYMELSSLRSEDTAVYYCARVDTADYMDVWGKGTLVTVSS
VL: DIQMTQSPSSLSASVGDRVTITCRASQGISSWLAWYQQKPGKAPKLLIYDASNLQTGVPSRFSGSGSGTDFTLTISSLQPEDFATYYCQQSYSTPLTFGQGTKVEIKR
notes: scFv
For the molecule B17, the binding result with huCLL1-Q244-Avi-Tev-His and in the test with huCLL1-K244-Avi-Tev-His was “binds” in each case.

B18: Polypeptide No. 177 (scFv, V domains shown)
VH: QVQLVQSGAEVKKPGASVKVSCKASGYTFTSYYMHWVRQAPGQGLEWMGWMNPNSGNTGYAQKFQGRVTMTRDTSTSTVYMELSSLRSEDTAVYYCARSTYSDSFDYWGQGTLVTVSS
VL: DIQMTQSPSSLSASVGDRVTITCRASQSISNWLAWYQQKPGKAPKLLIYDASNLETGVPSRFSGSGSGTDFTLTISSLQPEDFATYYCQQSYSTPLTFGQGTKLEIKR
notes: scFv
Turning to B18, the binding result in the test with huCLL1-Q244-Avi-Tev-His and with huCLL1-K244-Avi-Tev-His was “binds” in each case.

For the origin of these results see patent US20240101668A1 (WUGEN, published 2024).
